In publication PMC2704923:

Assays:
[1] = test system: CENP-N K15A (Homo sapiens); assay: EMSA
[2] = test system: CENP-N R124A (Homo sapiens); assay: EMSA
[3] = biological target: H3^CATD mononucleosome, reconstituted with alpha-satellite DNA; assay: native gel or EMSA
CENP-N (Homo sapiens) = assay: EMSA

Chain of CENP-N (wildtype), 35S-labelled, in vitro translated (Q96H22 whole entry): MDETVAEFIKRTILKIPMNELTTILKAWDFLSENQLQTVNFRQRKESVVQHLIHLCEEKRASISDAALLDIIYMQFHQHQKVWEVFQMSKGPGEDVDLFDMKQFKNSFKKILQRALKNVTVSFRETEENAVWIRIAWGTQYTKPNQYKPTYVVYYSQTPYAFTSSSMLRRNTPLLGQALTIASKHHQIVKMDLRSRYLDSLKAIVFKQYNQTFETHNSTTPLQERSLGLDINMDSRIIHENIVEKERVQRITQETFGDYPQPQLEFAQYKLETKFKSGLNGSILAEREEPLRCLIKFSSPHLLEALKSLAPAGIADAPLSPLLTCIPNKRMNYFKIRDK

## CENP-A nucleosome, alpha-satellite
[1]
  Kd: 297 nM
[2]
  Kd: 72 nM

## CENP-N (wildtype), 35S-labelled, in vitro translated (from UniProt Q96H22 1-339) (natural protein)
[3]
  Kd: 163 nM

## H3CATD nucleosome, alpha-satellite
CENP-N (Homo sapiens)
  Kd: 163 nM
